From PMC3633458

Columns and labels:
[1] = molecular target: Escherichia coli-expressed Plasmodium falciparum merozoite surface protein 3 (EcMSP3) (Plasmodium falciparum (FVO strain)); test: SEC-MALS
[2] = molecular target: Escherichia coli-expressed Plasmodium falciparum merozoite surface protein 3 (EcMSP3) (Plasmodium falciparum (FVO strain)); test: AUC

Escherichia coli-expressed Plasmodium falciparum merozoite surface protein 3 (EcMSP3) (domain or fragment)
stoichiometry N [1]: 2 | stoichiometry N [2]: 2
